The source of these data is paper PMC2583105 (The EMBO Journal, 2008).

pKd: −log10 of the molar value. Residues, ends and D or L forms follow the SMILES beside them.

Assay [1] concerns the target LatB-bound G-actin (rabbit skeletal muscle actin) (Oryctolagus cuniculus, UniProt P68135). Put plainly: Fluorescence anisotropy assay of RPEL^MAL:G-actin interaction. The conditions noted are these: ratio of Kd values from fluorescence anisotropy. It counts as binding. (In general: Fluorescence polarisation rises when a labelled molecule tumbles more slowly, as on binding a larger partner.)

The target of assay [2] is FITC-conjugated 'RPEL2-like' RPEL3^MAL peptide, G171/P172 replaced by E and R (mouse). In words: fluorescence polarisation.
Assay [3] addresses FITC-conjugated RPEL1^MAL peptide, E86A (mouse). Put plainly: fluorescence polarisation.
For assay [4], the target named is FITC-conjugated RPEL1^MAL peptide, MAL(67–98), wild type (mouse). Put plainly: fluorescence polarisation.
Assay [5] concerns the target FITC-conjugated RPEL1^MAL peptide, R81 and R82 both to alanine (mouse). In words: fluorescence polarisation.
The target of assay [6] is FITC-conjugated RPEL1^MAL peptide, R81A (mouse). Put plainly: fluorescence polarisation.
Assay [7] addresses FITC-conjugated RPEL1^MAL peptide, alanine at R82 (the position of the conserved RPEL proline) (mouse). Put plainly: fluorescence polarisation.
Assay [8] deals with FITC-conjugated RPEL1^MAL peptide, α2^AAA mutant (mouse). Put plainly: fluorescence polarisation.
For assay [9], the target named is FITC-conjugated RPEL2^MAL peptide, E130A (mouse). Put plainly: fluorescence polarisation.
The target of assay [10] is FITC-conjugated RPEL2^MAL peptide, MAL(111–142), wild type (mouse). In words: fluorescence polarisation.
Assay [11] concerns the target FITC-conjugated RPEL2^MAL peptide, P126 replaced with arginine (mouse). In words: fluorescence polarisation.
In assay [12] the target is FITC-conjugated RPEL2^MAL peptide, P126A (mouse). Put plainly: fluorescence polarisation.
The target of assay [13] is FITC-conjugated RPEL3^MAL peptide, MAL(155–186), wild type (mouse). In words: fluorescence polarisation.

Turning to `CC[C@H](C)[C@H](NC(=O)CNC(=O)[C@H](CCC(N)=O)NC(=O)[C@H](CO)NC(=O)[C@@H](NC(=O)[C@H](CC(C)C)NC(=O)[C@H](CCC(=O)O)NC(=O)[C@H](CCC(=O)O)NC(=O)[C@H](CCCNC(=N)N)NC(=O)[C@@H](NC(=O)[C@H](C)NC(=O)[C@H](CCCNC(=N)N)NC(=O)[C@H](CCC(N)=O)NC(=O)[C@H](CCC(N)=O)NC(=O)[C@H](CC(C)C)NC(=O)[C@H](CCCCN)NC(=O)[C@H](CC(C)C)NC(=O)[C@H](CCC(N)=O)NC(=O)[C@H](CC(C)C)NC(=O)[C@@H](NC(=O)[C@H](CC(N)=O)NC(=O)[C@H](CCCCN)NC(=O)[C@H](CCCNC(=N)N)NC(=O)[C@H](CCC(=O)O)NC(=O)[C@H](CO)NC(=O)[C@H](CC(C)C)NC(=S)Nc1ccc2c(c1)C(=O)OC21c2ccc(O)cc2Oc2cc(O)ccc21)C(C)C)[C@@H](C)O)C(C)C)C(=O)N[C@@H](CCSC)C(=O)N1CCC[C@H]1C(=O)N1CCC[C@H]1C(=O)N[C@@H](CC(C)C)C(=O)N[C@@H](CCCCN)C(=O)N[C@@H](CO)C(=O)O` [RPEL1 R82A] (HELM PEPTIDE1{[O=C1OC2(c3ccc(O)cc3Oc3cc(O)ccc32)c2ccc(NC(=S)[*:2])cc21].L.S.E.R.K.N.V.L.Q.L.K.L.Q.Q.R.A.T.R.E.E.L.V.S.Q.G.I.M.P.P.L.K.S}$$$$V2.0; C-terminus assumed), the “Fold reduction of actin-binding affinity relative to the wild-type peptide” value in [1] was determined as 3.5 fold.

With `CC[C@H](C)[C@H](NC(=O)[C@H](CCCCN)NC(=O)[C@H](CCCNC(=N)N)NC(=O)[C@H](CCCCN)NC(=O)[C@H](CC(C)C)NC(=O)[C@H](Cc1ccc(O)cc1)NC(=O)[C@H](CC(=O)O)NC(=O)[C@H](CCC(=O)O)NC(=O)[C@@H](NC(=O)[C@H](CCCNC(=N)N)NC(=O)[C@H](C)NC(=O)[C@H](CCCNC(=N)N)NC(=S)Nc1ccc2c(c1)C(=O)OC21c2ccc(O)cc2Oc2cc(O)ccc21)[C@@H](C)O)C(=O)N[C@@H](CCCNC(=N)N)C(=O)N[C@@H](CO)C(=O)N[C@@H](CCCNC(=N)N)C(=O)N[C@@H](C)C(=O)N[C@@H](CCC(=O)O)C(=O)N[C@@H](CCCNC(=N)N)C(=O)N[C@@H](C)C(=O)N[C@@H](CCC(=O)O)C(=O)N[C@@H](CC(C)C)C(=O)N[C@H](C(=O)N[C@@H](CCCNC(=N)N)C(=O)N[C@@H](CCSC)C(=O)N[C@@H](Cc1c[nH]cn1)C(=O)N[C@H](C(=O)N[C@@H](CC(C)C)C(=O)N[C@@H](CCC(=O)O)C(=O)N[C@@H](CCC(=O)O)C(=O)N[C@H](C(=O)N[C@@H](CO)C(=O)N[C@@H](C)C(=O)O)[C@@H](C)O)[C@@H](C)CC)C(C)C` [RPEL2 P126A] (HELM PEPTIDE1{[O=C1OC2(c3ccc(O)cc3Oc3cc(O)ccc32)c2ccc(NC(=S)[*:2])cc21].R.A.R.T.E.D.Y.L.K.R.K.I.R.S.R.A.E.R.A.E.L.V.R.M.H.I.L.E.E.T.S.A}$$$$V2.0; C-terminus assumed), the “Fold reduction of actin-binding affinity relative to the wild-type peptide” value in assay [1] is recorded as 16 fold.

For orientation: pKd means the negative decadic logarithm of the Kd, by convention in mol/L. Lower therefore signals a large Kd. Take “rabbit skeletal muscle G-actin bound to latrunculin B (LatB) and ATP (from UniProt P68135 1-377) (natural protein)”: the pKd in [2] is 5.32; in [3] it was 5.57; in assay [4], 6.00; in assay [5] it was 4.35; in [6] it was 4.75; in [7], 5.43. Further, the pKd in [8] is 4.62; in [9], 5.72; in assay [10], 5.72; in assay [11], 4.71; in assay [12] it was 4.51; in assay [13], 4.54.
